Test results from patent US20100310542A1, “Pharmaceutical Compositions for treating wouds and related methods” (HEALOR LTD., priority 2007, published 2010).

System: keratin 1
Experiment: keratin 1 expression by Western blot in keratinocytes
Type: cell-based, mice
Details: visfatin 0.0001 μg/ml or L-alpha 100 ng/ml, 24 hours after calcium-induced differentiation
Description: Medium A and B are both EMEM eagle's minimal essential medium from Biological Industries (Israel) containing 8% CHELEX™ treated fetal bovine serum. CHELEX™ is a strong chelator which binds free Ca^2+ and Mg^2+ ions to prevent these ions from being bioavailable to the cultured cells.
Primary skin keratinocytes isolated from the tails of adult mice (7-10 months up to 2 years) were maintained in medium A (MEM) as described above. After 5 days in (medium A), the growth medium in half of the cultured plates was replaced with medium B (as described above)
Next visfatin or L-alpha were each individually added to cells cultured in medium A (FIG. 19A) and cells cultured in medium B (FIG. 19B) as indicated in FIG. 19. The final concentration in the culture medium of visfatin was 0.0001 μg/ml visfatin. The final concentration in the culture medium of L-alpha was 100 ng/ml.
Cell differentiation was induced by elevating calcium from 0.05 mM to 0.12 mM as described above. Twenty-four (24) hours after differentiation cells were harvested and Western Blot analysis was performed. […] Keratin 1 expression was then quantified using standard densitometric methods […]
Cell differentiation was then induced by elevating calcium levels in the culture medium from 0.05 mM to 0.12 mM. […] Expression was assessed using standard Western blotting and densitometry techniques.

B1: visfatin: murine visfatin (ALEXIS), adipocytokine that functions as an insulin analog (protein, UniProt Q99KQ4 1-491, looked up)
Nicotinamide …: MNAAAEAEFNILLATDSYKVTHYKQYPPNTSKVYSYFECREKKTENSKVRKVKYEETVFYGLQYILNKYLKGKVVTKEKIQEAKEVYREHFQDDVFNERGWNYILEKYDGHLPIEVKAVPEGSVIPRGNVLFTVENTDPECYWLTNWIETILVQSWYPITVATNSREQKKILAKYLLETSGNLDGLEYKLHDFGYRGVSSQETAGIGASAHLVNFKGTDTVAGIALIKKYYGTKDPVPGYSVPAAEHSTITAWGKDHEKDAFEHIVTQFSSVPVSVVSDSYDIYNACEKIWGEDLRHLIVSRSTEAPLIIRPDSGNPLDTVLKVLDILGKKFPVTENSKGYKLLPPYLRVIQGDGVDINTLQEIVEGMKQKKWSIENVSFGSGGALLQKLTRDLLNCSFKCSYVVTNGLGVNVFKDPVADPNKRSKKGRLSLHRTPAGNFVTLEEGKGDLEEYGHDLLHTVFKNGKVTKSYSFDEVRKNAQLNIEQDVAPH
expression of keratin 1 (medium A (no KCl)): decreased relative to the control sample
expression of keratin 1 (medium B (KCl 0.4 mg/ml)): not significantly altered
